From PMC3904261 (British Journal of Pharmacology, 2013)
Bridge positions count the residues as written; N and C are the ends. Ends that are not written are not given here.

B1: [Ala^4]-CGRP (peptide)
chain: ACDAATCVTHRLAGLLSRSGGVVKNNFVPTNVGSKAF-NH2
modifications: disulfide 2-7
B2: [Cys^5]-CGRP (peptide)
chain: ACDTCTCVTHRLAGLLSRSGGVVKNNFVPTNVGSKAF-NH2
modifications: disulfide 2-7; N-terminus assumed
SMILES: CC(C)C[C@H](NC(=O)CNC(=O)[C@H](C)NC(=O)[C@H](CC(C)C)NC(=O)[C@H](CCCNC(=N)N)NC(=O)[C@H](Cc1c[nH]cn1)NC(=O)[C@@H](NC(=O)[C@@H](NC(=O)[C@@H]1CSSC[C@H](NC(=O)[C@H](C)N)C(=O)N[C@@H](CC(=O)O)C(=O)N[C@@H]([C@@H](C)O)C(=O)N[C@@H](CS)C(=O)N[C@@H]([C@@H](C)O)C(=O)N1)C(C)C)[C@@H](C)O)C(=O)N[C@@H](CC(C)C)C(=O)N[C@@H](CO)C(=O)N[C@@H](CCCNC(=N)N)C(=O)N[C@@H](CO)C(=O)NCC(=O)NCC(=O)N[C@H](C(=O)N[C@H](C(=O)N[C@@H](CCCCN)C(=O)N[C@@H](CC(N)=O)C(=O)N[C@@H](CC(N)=O)C(=O)N[C@@H](Cc1ccccc1)C(=O)N[C@H](C(=O)N1CCC[C@H]1C(=O)N[C@H](C(=O)N[C@@H](CC(N)=O)C(=O)N[C@H](C(=O)NCC(=O)N[C@@H](CO)C(=O)N[C@@H](CCCCN)C(=O)N[C@@H](C)C(=O)N[C@@H](Cc1ccccc1)C(N)=O)C(C)C)[C@@H](C)O)C(C)C)C(C)C)C(C)C
B3: [Ala^6]-CGRP (peptide)
chain: ACDTAACVTHRLAGLLSRSGGVVKNNFVPTNVGSKAF-NH2
modifications: disulfide 2-7

Tests used:
[1] = target: T1, CGRP receptor (calcitonin receptor-like receptor in complex with receptor activity-modifying protein 1) (human (endogenous in SK-N-MC), UniProt Q16602 23-461; O60894 27-148); test: radioligand binding; displacement of ^125I-CGRP from SK-N-MC cell membranes by unlabelled peptides, microcentrifugation-based binding assay; [Cys^5]-CGRP and its control on another batch of SK-N-MC cells; details: one partner purified
T1 sequence (Q16602 23-461, chain 1 of 2): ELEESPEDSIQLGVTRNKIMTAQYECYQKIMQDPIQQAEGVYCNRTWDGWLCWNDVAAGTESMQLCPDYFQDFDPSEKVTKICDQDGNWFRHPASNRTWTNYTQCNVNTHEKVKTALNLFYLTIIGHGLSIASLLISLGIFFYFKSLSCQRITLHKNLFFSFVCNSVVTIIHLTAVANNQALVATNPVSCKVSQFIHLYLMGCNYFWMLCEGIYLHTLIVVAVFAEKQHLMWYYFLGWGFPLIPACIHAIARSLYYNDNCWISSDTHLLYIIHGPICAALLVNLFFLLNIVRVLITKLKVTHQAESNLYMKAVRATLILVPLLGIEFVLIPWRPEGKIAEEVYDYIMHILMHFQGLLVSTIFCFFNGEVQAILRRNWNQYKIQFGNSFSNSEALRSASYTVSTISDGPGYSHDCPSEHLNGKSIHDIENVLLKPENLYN
T1 sequence (O60894 27-148, chain 2 of 2): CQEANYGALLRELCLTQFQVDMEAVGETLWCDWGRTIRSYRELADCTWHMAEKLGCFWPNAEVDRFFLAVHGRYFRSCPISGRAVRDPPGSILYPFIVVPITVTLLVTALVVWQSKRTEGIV

[2] = target: AMY_(1(a)) receptor (human HA-tagged CT (a) receptor with human myc-tagged RAMP1) (human) (UniProt O60894)
Sequence of AMY_(1(a)) receptor (human HA-tagged CT (a) receptor with human myc-tagged RAMP1) (human) (O60894 whole entry, looked up): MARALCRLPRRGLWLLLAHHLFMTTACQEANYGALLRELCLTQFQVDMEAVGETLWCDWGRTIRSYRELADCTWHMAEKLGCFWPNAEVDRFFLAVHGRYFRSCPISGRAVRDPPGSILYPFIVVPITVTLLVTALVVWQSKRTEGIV

[3] = target: T1, CGRP receptor (calcitonin receptor-like …); test: cell-based or functional assay
[4] = target: T1, CGRP receptor (calcitonin receptor-like …); test: cell-based or functional assay; remark: listed apart in the source

pKi [1]	Emax (% CGRP), cAMP production in Cos 7 cells with the AMY (1(a)) receptor [2]	pEC50, cAMP production in Cos 7 cells with the AMY (1(a)) receptor [2]	pEC50, cAMP production in the second clone of SK-N-MC cells, AlphaScreen (control experiment) [3]	Emax (% CGRP), cAMP production in SK-N-MC cells [4]	Emax (% CGRP), β-arrestin 2 translocation in CHO-K1 cells expressing the human CGRP receptor [4]	pEC50, cAMP production in SK-N-MC cells [4]	pEC50, β-arrestin 2 translocation in CHO-K1 cells expressing the human CGRP receptor [4]	pEC50, cAMP production in Cos 7 cells transfected with CLR and RAMP1 [3]	pEC50, cAMP production in SK-N-MC cells (other clone of cells, AlphaScreen; footnote: no response seen in five experiments) [4]	Binder
9.4	161 % CGRP	8.57	7.58	100 % CGRP	73 % CGRP	7.43	8.42			B1
8	50 % CGRP	7.78			55 % CGRP		8.25	7.9	7.18	B2
8.57	42 % CGRP	7	7.39	72 % CGRP	43 % CGRP	6.59	7.74			B3
